To fix the notation:
B1: UBTF (protein, UniProt P17480 1-764, looked up)
Nucleolar transcription …: MNGEADCPTDLEMAAPKGQDRWSQEDMLTLLECMKNNLPSNDSSKFKTTESHMDWEKVAFKDFSGDMCKLKWVEISNEVRKFRTLTELILDAQEHVKNPYKGKKLKKHPDFPKKPLTPYFRFFMEKRAKYAKLHPEMSNLDLTKILSKKYKELPEKKKMKYIQDFQREKQEFERNLARFREDHPDLIQNAKKSDIPEKPKTPQQLWYTHEKKVYLKVRPDATTKEVKDSLGKQWSQLSDKKRLKWIHKALEQRKEYEEIMRDYIQKHPELNISEEGITKSTLTKAERQLKDKFDGRPTKPPPNSYSLYCAELMANMKDVPSTERMVLCSQQWKLLSQKEKDAYHKKCDQKKKDYEVELLRFLESLPEEEQQRVLGEEKMLNINKKQATSPASKKPAQEGGKGGSEKPKRPVSAMFIFSEEKRRQLQEERPELSESELTRLLARMWNDLSEKKKAKYKAREAALKAQSERKPGGEREERGKLPESPKRAEEIWQQSVIGDYLARFKNDRVKALKAMEMTWNNMEKKEKLMWIKKAAEDQKRYERELSEMRAPPAATNSSKKMKFQGEPKKPPMNGYQKFSQELLSNGELNHLPLKERMVEIGSRWQRISQSQKEHYKKLAEEQQKQYKVHLDLWVKSLSPQDRAAYKEYISNKRKSMTKLRGPNPKSSRTTLQSKSESEEDDEEDEDDEDEDEEEEDDENGDSSEDGGDSSESSSEDESEDGDENEEDDEDEDDDEDDDEDEDNESEGSSSSSSSSGDSSDSDSN
B2: FUS (protein, UniProt P35637 1-526, looked up)
RNA-binding protein FUS: MASNDYTQQATQSYGAYPTQPGQGYSQQSSQPYGQQSYSGYSQSTDTSGYGQSSYSSYGQSQNTGYGTQSTPQGYGSTGGYGSSQSSQSSYGQQSSYPGYGQQPAPSSTSGSYGSSSQSSSYGQPQSGSYSQQPSYGGQQQSYGQQQSYNPPQGYGQQNQYNSSSGGGGGGGGGGNYGQDQSSMSSGGGSGGGYGNQDQSGGGGSGGYGQQDRGGRGRGGSGGGGGGGGGGYNRSSGGYEPRGRGGGRGGRGGMGGSDRGGFNKFGGPRDQGSRHDSEQDNSDNNTIFVQGLGENVTIESVADYFKQIGIIKTNKKTGQPMINLYTDRETGKLKGEATVSFDDPPSAKAAIDWFDGKEFSGNPIKVSFATRRADFNRGGGNGRGGRGRGGPMGRGGYGGGGSGGGGRGGFPSGGGGGGGQQRAGDWKCPNPTCENMNFSWRNECNQCKAPKPDGPGGGPGGSHMGGNYGDDRRGGRGGYDRGGYRGRGGDRGGFRGGRGGGDRGGFGPGKMDSRGEHRQDRRERPY
B3: HNRNPH1 (protein, UniProt P31943 1-449, looked up)
Heterogeneous nuclear …: MMLGTEGGEGFVVKVRGLPWSCSADEVQRFFSDCKIQNGAQGIRFIYTREGRPSGEAFVELESEDEVKLALKKDRETMGHRYVEVFKSNNVEMDWVLKHTGPNSPDTANDGFVRLRGLPFGCSKEEIVQFFSGLEIVPNGITLPVDFQGRSTGEAFVQFASQEIAEKALKKHKERIGHRYIEIFKSSRAEVRTHYDPPRKLMAMQRPGPYDRPGAGRGYNSIGRGAGFERMRRGAYGGGYGGYDDYNGYNDGYGFGSDRFGRDLNYCFSGMSDHRYGDGGSTFQSTTGHCVHMRGLPYRATENDIYNFFSPLNPVRVHIEIGPDGRVTGEADVEFATHEDAVAAMSKDKANMQHRYVELFLNSTAGASGGAYEHRYVELFLNSTAGASGGAYGSQMMGGMGLSNQSSYGGPASQQLSGGYGGGYGGQSSMSGYDQVLQENSSDFQSNIA
B4: WDR3 (protein, UniProt Q9UNX4 1-943, looked up)
WD repeat-containing protein 3: MGLTKQYLRYVASAVFGVIGSQKGNIVFVTLRGEKGRYVAVPACEHVFIWDLRKGEKILILQGLKQEVTCLCPSPDGLHLAVGYEDGSIRIFSLLSGEGNVTFNGHKAAITTLKYDQLGGRLASGSKDTDIIVWDVINESGLYRLKGHKDAITQALFLREKNLLVTSGKDTMVKWWDLDTQHCFKTMVGHRTEVWGLVLLSEEKRLITGASDSELRVWDIAYLQEIEDPEEPDPKKIKGSSPGIQDTLEAEDGAFETDEAPEDRILSCRKAGSIMREGRDRVVNLAVDKTGRILACHGTDSVLELFCILSKKEIQKKMDKKMKKARKKAKLHSSKGEEEDPEVNVEMSLQDEIQRVTNIKTSAKIKSFDLIHSPHGELKAVFLLQNNLVELYSLNPSLPTPQPVRTSRITIGGHRSDVRTLSFSSDNIAVLSAAADSIKIWNRSTLQCIRTMTCEYALCSFFVPGDRQVVIGTKTGKLQLYDLASGNLLETIDAHDGALWSMSLSPDQRGFVTGGADKSVKFWDFELVKDENSTQKRLSVKQTRTLQLDEDVLCVSYSPNQKLLAVSLLDCTVKIFYVDTLKFFLSLYGHKLPVICMDISHDGALIATGSADRNVKIWGLDFGDCHKSLFAHDDSVMYLQFVPKSHLFFTAGKDHKIKQWDADKFEHIQTLEGHHQEIWCLAVSPSGDYVVSSSHDKSLRLWERTREPLILEEEREMEREAEYEESVAKEDQPAVPGETQGDSYFTGKKTIETVKAAERIMEAIELYREETAKMKEHKAICKAAGKEVPLPSNPILMAYGSISPSAYVLEIFKGIKSSELEESLLVLPFSYVPDILKLFNEFIQLGSDVELICRCLFFLLRIHFGQITSNQMLVPVIEKLRETTISKVSQVRDVIGFNMAGLDYLKRECEAKSEVMFFADATSHLEEKKRKRKKREKLILTLT
B5: CCDC47 (protein, UniProt Q96A33 21-483, looked up)
PAT complex subunit CCDC47: KFDDFEDEEDIVEYDDNDFAEFEDVMEDSVTESPQRVIITEDDEDETTVELEGQDENQEGDFEDADTQEGDTESEPYDDEEFEGYEDKPDTSSSKNKDPITIVDVPAHLQNSWESYYLEILMVTGLLAYIMNYIIGKNKNSRLAQAWFNTHRELLESNFTLVGDDGTNKEATSTGKLNQENEHIYNLWCSGRVCCEGMLIQLRFLKRQDLLNVLARMMRPVSDQVQIKVTMNDEDMDTYVFAVGTRKALVRLQKEMQDLSEFCSDKPKSGAKYGLPDSLAILSEMGEVTDGMMDTKMVHFLTHYADKIESVHFSDQFSGPKIMQEEGQPLKLPDTKRTLLFTFNVPGSGNTYPKDMEALLPLMNMVIYSIDKAKKFRLNREGKQKADKNRARVEENFLKLTHVQRQEAAQSRREEKKRAEKERIMNEEDPEKQRRLEEAALRREQKKLEKKQMKMKQIKVKAM
B6: FARSA (protein, UniProt Q9Y285 2-508, looked up)
Phenylalanine--tRNA ligase …: ADGQVAELLLRRLEASDGGLDSAELAAELGMEHQAVVGAVKSLQALGEVIEAELRSTKHWELTAEGEEIAREGSHEARVFRSIPPEGLAQSELMRLPSGKVGFSKAMSNKWIRVDKSAADGPRVFRVVDSMEDEVQRRLQLVRGGQAEKLGEKERSELRKRKLLAEVTLKTYWVSKGSAFSTSISKQETELSPEMISSGSWRDRPFKPYNFLAHGVLPDSGHLHPLLKVRSQFRQIFLEMGFTEMPTDNFIESSFWNFDALFQPQQHPARDQHDTFFLRDPAEALQLPMDYVQRVKRTHSQGGYGSQGYKYNWKLDEARKNLLRTHTTSASARALYRLAQKKPFTPVKYFSIDRVFRNETLDATHLAEFHQIEGVVADHGLTLGHLMGVLREFFTKLGITQLRFKPAYNPYTEPSMEVFSYHQGLKKWVEVGNSGVFRPEMLLPMGLPENVSVIAWGLSLERPTMIKYGINNIRELVGHKVNLQMVYDSPLCRLDAEPRPPPTQEAA
B7: DNTTIP2 (protein, UniProt Q5QJE6 1-756, looked up)
Deoxynucleotidyltransferase …: MVVTRSARAKASIQAASAESSGQKSFAANGIQAHPESSTGSDARTTAESQTTGKQSLIPRTPKARKRKSRTTGSLPKGTEPSTDGETSEAESNYSVSEHHDTILRVTRRRQILIACSPVSSVRKKPKVTPTKESYTEEIVSEAESHVSGISRIVLPTEKTTGARRSKAKSLTDPSQESHTEAISDAETSSSDISFSGIATRRTRSMQRKLKAQTEKKDSKIVPGNEKQIVGTPVNSEDSDTRQTSHLQARSLSEINKPNFYNNDFDDDFSHRSSENILTVHEQANVESLKETKQNCKDLDEDANGITDEGKEINEKSSQLKNLSELQDTSLQQLVSQRHSTPQNKNAVSVHSNLNSEAVMKSLTQTFATVEVGRWNNNKKSPIKASDLTKFGDCGGSDDEEESTVISVSEDMNSEGNVDFECDTKLYTSAPNTSQGKDNSVLLVLSSDESQQSENSENEEDTLCFVENSGQRESLSGDTGSLSCDNALFVIDTTPGMSADKNFYLEEEDKASEVAIEEEKEEEEDEKSEEDSSDHDENEDEFSDEEDFLNSTKAKLLKLTSSSIDPGLSIKQLGGLYINFNADKLQSNKRTLTQIKEKKKNELLQKAVITPDFEKNHCVPPYSESKYQLQKKRRKERQKTAGDGWFGMKAPEMTNELKNDLKALKMRASMDPKRFYKKNDRDGFPKYFQIGTIVDNPADFYHSRIPKKQRKRTIVEELLADSEFRRYNRRKYSEIMAEKAANAAGKKFRKKKKFRN
B8: KANK2 (protein, UniProt Q63ZY3 1-851, looked up)
KN motif and ankyrin repeat …: MAQVLHVPAPFPGTPGPASPPAFPAKDPDPPYSVETPYGYRLDLDFLKYVDDIEKGHTLRRVAVQRRPRLSSLPRGPGSWWTSTESLCSNASGDSRHSAYSYCGRGFYPQYGALETRGGFNPRVERTLLDARRRLEDQAATPTGLGSLTPSAAGSTASLVGVGLPPPTPRSSGLSTPVPPSAGHLAHVREQMAGALRKLRQLEEQVKLIPVLQVKLSVLQEEKRQLTVQLKSQKFLGHPTAGRGRSELCLDLPDPPEDPVALETRSVGTWVRERDLGMPDGEAALAAKVAVLETQLKKALQELQAAQARQADPQPQAWPPPDSPVRVDTVRVVEGPREVEVVASTAAGAPAQRAQSLEPYGTGLRALAMPGRPESPPVFRSQEVVETMCPVPAAATSNVHMVKKISITERSCDGAAGLPEVPAESSSSPPGSEVASLTQPEKSTGRVPTQEPTHREPTRQAASQESEEAGGTGGPPAGVRSIMKRKEEVADPTAHRRSLQFVGVNGGYESSSEDSSTAENISDNDSTENEAPEPRERVPSVAEAPQLRPAGTAAAKTSRQECQLSRESQHIPTAEGASGSNTEEEIRMELSPDLISACLALEKYLDNPNALTERELKVAYTTVLQEWLRLACRSDAHPELVRRHLVTFRAMSARLLDYVVNIADSNGNTALHYSVSHANFPVVQQLLDSGVCKVDKQNRAGYSPIMLTALATLKTQDDIETVLQLFRLGNINAKASQAGQTALMLAVSHGRVDVVKALLACEADVNVQDDDGSTALMCACEHGHKEIAGLLLAVPSCDISLTDRDGSTALMVALDAGQSEIASMLYSRMNIKCSFAPMSDDESPTSSSAEE

One experiment has as its system GFP-14-3-3β and its binding proteins. The experiment can be described thus: GFP-14-3-3β co-IP with LC-MS/MS label-free quantification, untreated versus PP1c-treated. Set-up: species or system human. Particulars: GFP-14-3-3β co-IP LC-MS/MS; PP1 vs untreated; student's t-test; label-free quantification, 3 replicates each.
Turning to B1, the “Difference (log2), PP1 vs untreated” value is recorded as -0.5334 log2.
The same measure, in the same setting: the result for B2 reads -0.548 log2.
Still for that read-out and setting: to B3 belongs -0.5044 log2; to B4, -0.4911 log2.
On the same count and under the same terms, the result for B5 reads -0.5387 log2; that for B6, -0.541 log2.
Regarding B7, the “Difference (log2), PP1 vs untreated” value is listed as -0.5492 log2.
Same read-out and setting: to B8 belongs -0.5359 log2.

The test system of the next experiment is GFP-14-3-3β. The experiment can be described thus: GFP-14-3-3β co-IP with LC-MS/MS, untreated GFP-14-3-3β versus GFP control (14-3-3 interactome). Format: binding, human. Particulars: GFP-14-3-3β co-IP LC-MS/MS; untreated vs GFP; student's t-test; label-free quantification, 3 replicates each.
As for B1, the “Difference (log2), untreated vs GFP” value worked out at 1.529 log2.
Same read-out and setting: the result for B2 reads -0.2742 log2; that for B3, 0.1701 log2.
Regarding B4, the “Difference (log2), untreated vs GFP” value stood at 0.8072 log2.
Still for that read-out and setting: the result for B5 reads 1.192 log2.
The same measure, in the same setting: the result for B6 reads 1.078 log2; that for B7, 2.447 log2; that for B8, 1.477 log2.

The record behind these values is paper PMC7367873, “Dissecting the sequence determinants for dephosphorylation by the catalytic subunits of phosphatases PP1 and PP2A” (Nature Communications, 2020).
